The target in this experiment is human cyclophilin A (human) (UniProt P62937). As to the kind of experiment: SPR. In general terms: Surface plasmon resonance follows binding to a sensor surface in real time, without labels.

The term Kd denotes the free concentration of one partner at which half of the binding sites on the other are occupied at equilibrium, for simple one-to-one binding. A high value points to weaker binding.

human cyclophilin A (human), sequence (P62937 whole entry): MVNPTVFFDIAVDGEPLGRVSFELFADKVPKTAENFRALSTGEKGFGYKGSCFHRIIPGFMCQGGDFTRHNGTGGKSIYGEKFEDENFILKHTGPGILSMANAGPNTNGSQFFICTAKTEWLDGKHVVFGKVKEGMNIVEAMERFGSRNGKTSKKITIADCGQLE

“SARS-CoV-2 RBD, Deltacron variant (AY.4/BA.1) (from UniProt P0DTC2) (domain or fragment)”: the Kd worked out at 18.6 nM. “SARS-CoV-2 RBD, Omicron variant (BA.1, B.1.1.529) (from UniProt P0DTC2) (domain or fragment)”: the dissociation constant (Kd) amounted to 26.4 nM.
